Reference: publication doi:10.1101/2023.09.17.558134 (bioRxiv, 2023)

Experiments:
[1] = target: RNA polymerase β subunit (in the purified holoenzyme) (E. coli, UniProt P0A8V2 1-1342); assay: cryo-EM structure
σ70 (purified) = σ70 (purified) (E. coli, UniProt P00579 1-613); assay: cryo-EM structure
Chain of σ70 (purified) (P00579 whole entry): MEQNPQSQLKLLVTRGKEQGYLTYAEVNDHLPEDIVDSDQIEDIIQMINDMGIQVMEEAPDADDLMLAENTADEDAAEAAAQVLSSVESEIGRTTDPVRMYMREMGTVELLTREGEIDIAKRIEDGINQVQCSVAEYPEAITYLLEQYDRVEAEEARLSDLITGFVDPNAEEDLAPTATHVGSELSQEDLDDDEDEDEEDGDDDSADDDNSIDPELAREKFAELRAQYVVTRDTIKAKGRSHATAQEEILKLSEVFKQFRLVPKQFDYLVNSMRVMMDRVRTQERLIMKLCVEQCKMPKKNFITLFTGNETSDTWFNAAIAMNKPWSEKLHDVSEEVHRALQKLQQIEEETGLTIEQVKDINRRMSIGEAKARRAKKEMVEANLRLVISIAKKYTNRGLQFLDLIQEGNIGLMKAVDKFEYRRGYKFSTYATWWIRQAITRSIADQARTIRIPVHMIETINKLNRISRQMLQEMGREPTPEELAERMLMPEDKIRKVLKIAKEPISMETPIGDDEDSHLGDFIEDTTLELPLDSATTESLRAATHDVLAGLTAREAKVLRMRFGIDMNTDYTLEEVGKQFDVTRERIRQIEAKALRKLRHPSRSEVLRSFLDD

Chain of RNA polymerase β subunit (in the purified holoenzyme) (P0A8V2 whole entry): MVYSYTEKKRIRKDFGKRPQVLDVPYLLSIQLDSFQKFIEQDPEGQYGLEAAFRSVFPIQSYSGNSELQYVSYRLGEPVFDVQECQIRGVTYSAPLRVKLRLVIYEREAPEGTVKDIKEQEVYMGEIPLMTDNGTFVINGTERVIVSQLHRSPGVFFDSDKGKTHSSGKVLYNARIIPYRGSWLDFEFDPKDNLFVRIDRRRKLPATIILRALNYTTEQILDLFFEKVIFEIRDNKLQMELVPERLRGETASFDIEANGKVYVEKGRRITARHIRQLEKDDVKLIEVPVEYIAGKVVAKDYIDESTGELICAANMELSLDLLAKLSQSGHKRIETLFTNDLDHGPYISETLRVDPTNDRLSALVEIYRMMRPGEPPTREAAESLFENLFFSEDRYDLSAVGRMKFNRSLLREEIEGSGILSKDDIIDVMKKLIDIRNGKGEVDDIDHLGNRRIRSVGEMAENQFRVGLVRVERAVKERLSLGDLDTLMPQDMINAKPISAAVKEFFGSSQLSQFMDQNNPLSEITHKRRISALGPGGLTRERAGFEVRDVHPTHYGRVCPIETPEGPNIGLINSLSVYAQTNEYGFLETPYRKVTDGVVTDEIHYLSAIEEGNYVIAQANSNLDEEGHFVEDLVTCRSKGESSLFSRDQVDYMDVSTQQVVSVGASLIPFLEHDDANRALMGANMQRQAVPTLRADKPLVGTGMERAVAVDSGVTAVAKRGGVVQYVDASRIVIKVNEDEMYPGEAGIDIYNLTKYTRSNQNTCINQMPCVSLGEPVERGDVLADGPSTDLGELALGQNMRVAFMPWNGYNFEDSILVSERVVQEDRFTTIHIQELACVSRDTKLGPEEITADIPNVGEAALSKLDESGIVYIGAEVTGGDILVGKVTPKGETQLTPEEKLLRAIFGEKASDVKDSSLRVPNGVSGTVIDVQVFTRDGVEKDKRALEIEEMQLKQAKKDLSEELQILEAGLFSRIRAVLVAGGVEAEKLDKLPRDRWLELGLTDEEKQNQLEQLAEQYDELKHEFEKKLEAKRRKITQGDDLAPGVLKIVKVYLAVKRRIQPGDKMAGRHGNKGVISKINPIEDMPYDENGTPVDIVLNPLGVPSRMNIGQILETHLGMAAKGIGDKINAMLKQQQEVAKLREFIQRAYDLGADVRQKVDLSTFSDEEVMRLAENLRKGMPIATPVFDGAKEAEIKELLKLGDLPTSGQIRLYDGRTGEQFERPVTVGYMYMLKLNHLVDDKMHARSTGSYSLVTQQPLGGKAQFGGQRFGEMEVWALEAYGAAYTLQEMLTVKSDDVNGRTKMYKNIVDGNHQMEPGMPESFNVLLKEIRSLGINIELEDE

B1: CedA (purified recombinant) (natural protein)
chain: MKKPLRQQNRQIISYVPRTEPAPPEHAIKMDSFRDVWMLRGKYVAFVLMGESFLRSPAFTVPESAQRWANQIRQEGEVTE
B1: binds [1]; binds (σ70 (purified)).
